Reference: PMC5915598, “Structural basis for the activation of acid ceramidase” (Nature Communications, 2018)

Biological target: T1, human acid ceramidase (aCDase, ASAH1) β-subunit (human, UniProt Q13510 143-395, N-glycosylated (insect cell glycans); disulfide C340 to C31 of the α-subunit; disulfide C388/C392)
T1 construct: acid ceramidase, human, UniProt Q13510; the construct spans residues 22-395 and autocleaves before Cys 143, which becomes the N terminus of the β-subunit: residues 143-395; Made as one chain with the α-subunit and set free by autocleavage; also called 30 kDa β-subunit
T1 sequence (looked up): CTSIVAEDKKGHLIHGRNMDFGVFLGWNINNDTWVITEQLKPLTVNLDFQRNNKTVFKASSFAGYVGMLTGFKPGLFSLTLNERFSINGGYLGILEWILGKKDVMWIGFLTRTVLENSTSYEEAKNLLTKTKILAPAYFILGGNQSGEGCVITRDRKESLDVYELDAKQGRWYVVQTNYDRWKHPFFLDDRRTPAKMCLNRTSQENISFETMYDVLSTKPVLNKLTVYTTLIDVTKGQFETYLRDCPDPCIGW
Test: crystal structure; autocleaved human aCDase, incubated with 1 mM ceranib-2 and 1 mM Triton X-100, crystallised at 22 °C in 100 mM sodium phosphate-citrate pH 4.3, 200 mM Li2SO4, 20% PEG 1000; the two subunits come from one chain and are also linked by a disulfide
Conditions: both partners purified

- binding result: binds
B1: human acid ceramidase (aCDase, ASAH1) α-subunit (domain or fragment, UniProt Q13510 22-142, looked up)
chain: QHAPPWTEDCRKSTYPPSGPTYRGAVPWYTINLDLPPYKRWHELMLDKAPVLKVIVNSLKNMINTFVPSGKVMQVVDEKLPGLLGNFPGPFEEEMKGIAAVTDIPLGEIISFNIFYELFTI
modifications: N-glycosylated (insect cell glycans); disulfide C31 to C340 of the β-subunit
notes: acid ceramidase, human, UniProt Q13510 variant Ile93Val; the construct spans residues 22-395 and autocleaves at the peptide bond between Ile 142 and Cys 143, so the α-subunit is residues 22-142; no removal of the tag is told; Residues 141 and 142 are disordered in the structure; also called 13 kDa α-subunit
